In FireProtDB (doi:10.1002/prot.340230110):

B1: Regulatory protein rop, P03051 (parent)
chain: MTKQEKTALNMARFIRSQTLTLLEKLNELDADEQADICESLHDHADELYRSCLARFGDDGENL

Variants of: B1
Settings: Escherichia coli, pH 6, Thermal, DSC, Sodium phosphate/Sodium sulfate 10 mM/10 mM/, reversible: yes, structure 1ROP, whole UniProt chain shown

| Variant | ddG of mutation (higher = less stable) (25 °C) [kcal/mol] | heat capacity change of unfolding (25 °C) [kcal/mol/K] | unfolding free energy (25 °C) [kcal/mol] | Tm [°C] | change of melting temperature, mutant - wild type (higher = more stable) [°C] | heat capacity change of unfolding [kcal/mol/K] | unfolding enthalpy (calorimetric) [kcal/mol] | unfolding enthalpy (van 't Hoff) [kcal/mol] |
| --- | --- | --- | --- | --- | --- | --- | --- | --- |
| MTKQEKTALNMARFIRSQTLTLLEKLNELDADEQADICESAHDHADELYRSCLARFGDDGENL [L41A] | 6.12 | 1.65 | 11 | 52.9 | -18.1 | 1.65 | 80.1 | 92.8 |
| MTKQEKTALNMARFIRSQTLTLLEKLNELDADEQADICESVHDHADELYRSCLARFGDDGENL [L41V] | 2.53 | 1.99 | 14.6 | 65.3 | -5.7 | 1.99 | 110 | 114 |
